{"source": "patent US20210398607A1", "about": "“METHODS FOR DESIGNING ANTIBODY SMALL-MOLECULE CONJUGATES” (priority 2020, published 2021)", "molecules": {"B1": {"name": "Wildtype 4NBX.B: nanobody scaffold, chain B of PDB structure 4NBX, SEQ ID NO:1, unconjugated (protein)", "VHH": "QVQLQESGGGLAQAGGSLRLSCAASGRTFSMDPMAWFRQPPGKEREFVAAGSSTGRTTYYADSVKGRFTISRDNAKNTVYLQMNSLKPEDTAVYYCAAAPYGANWYRDEYAYWGQGTQVTVSSHHHHHH", "modifications": "4NBX.B-WT"}, "B2": {"name": "4NBX.B-biotin103: nanobody 4NBX.B A103C (SEQ ID NO:2) conjugated with biotin C2 maleimide at site 103 (conjugate)", "VHH": "B1 VHH with A103C"}, "B3": {"name": "4NBX.B-biotin103 v149: 4NBX.B-biotin103 with M31R/D32S/N104A/W105R, SEQ ID NO:4; the WT line of Table 3 (conjugate)", "VHH": "B1 VHH with M31R, D32S, A103C, N104A, W105R"}, "B4": {"name": "4NBX.B-biotin103 v119: 4NBX.B-biotin103 with M31H/D32A/N104S/W105H, SEQ ID NO:3 (conjugate)", "VHH": "B1 VHH with M31H, D32A, A103C, N104S, W105H"}, "B5": {"name": "2X89.A-CCAA-biotin57: nanobody 2X89.A, intra-CDR disulfide replaced by two alanines, biotin conjugated to site 57, SEQ ID NO:10 (conjugate)", "VHH": "QVQLQESGGGSVQAGGSLRLSCAASGYTDSRYAMAWFRQAPGKEREWVARINSGRDCTYYADSVKGRFTFSQDNAKNTVYLQMDSLEPEDTATYYCATDIPLRARDIVAKGGDGFRYWGQGTQVTVSSHHHHHH"}, "B6": {"name": "4NBX.B-biotin103 v186: v149 plus Y101L/R107F/R56T/Y106K/D108A/Y110S, SEQ ID NO:5; the WT line of Table 2 (conjugate)", "VHH": "QVQLQESGGGLAQAGGSLRLSCAASGRTFSRSPMAWFRQPPGKEREFVAAGSSTGTTTYYADSVKGRFTISRDNAKNTVYLQMNSLKPEDTAVYYCAAAPLGCARKFAESAYWGQGTQVTVSSHHHHHH"}, "B7": {"name": "4NBX.B-biotin103 v186_Fr + 1: v186_Fr with biotin103 moved to +1 position on CDR3, SEQ ID NO:7 (conjugate)", "VHH": "B6 VHH with A12V, F37Y, C103A, A104C", "modifications": "biotin conjugated; 4NBX.B-biotin103 v186_Fr +1"}, "B8": {"name": "4NBX.B-biotin103 v186_Fr − 1: v186_Fr with biotin103 moved to −1 position on CDR3, SEQ ID NO:8 (conjugate)", "VHH": "B6 VHH with A12V, F37Y, G102C, C103A", "modifications": "biotin conjugated; 4NBX.B-biotin103 v186_Fr -1"}, "B9": {"name": "4NBX.B-biotin103 v186_Fr: v186 plus framework mutations A12V/F37Y, SEQ ID NO:6 (conjugate)", "VHH": "B6 VHH with A12V, F37Y"}, "B10": {"name": "2X89.A-CCAA-biotin57 v5: final variant of 2X89.A-CCAA-biotin57 that accumulated 18 mutations, SEQ ID NO:14 (conjugate)", "VHH": "QVQLQESGGGLVQAGGSLRLSCAASGYTSSQYAMGWYRQAPGKEREWVATISAGADCTYYADSVKGRFTFSQDNAKNTVYLQMDSLKPEDTAVYYCATDSPLQATLITAKGGKGFQYWGQGTQVTVSSHHHHHH"}, "B11": {"name": "mSA (monomeric streptavidin construct), wild type (other)", "chain": "HHHHHHSQDLASAEAGITGTWYNQSGSTFTVTAGADGNLTGQYENRAQGTGCQNSPYTLTGRYNGTKLEWRVEWNNSTENCHSRTEWRGQYQGGAEARINTQWNLTYEGGSGPATEQGQDTFTKVKPSAASGSDYKDDDDK", "notes": "also called mSAWT"}, "B12": {"name": "4NBX.B-biotin103 v186 (VHH)", "VHH": "QVQLQESGGGLAQAGGSLRLSCAASGRTFSRSPMAWFRQPPGKEREFVAAGSSTGTTTYYADSVKGRFTISRDNAKNTVYLQMNSLKPEDTAVYYCAAAPLGCARKFAESAYWGQGTQVTVSS"}, "B13": {"name": "4NBX.B-biotin103 v186_Fr -1 (VHH)", "VHH": "B12 VHH with A12V, F37Y, G102C, C103A", "notes": "also called -1 variant of 4NBX.B-biotin103 v186_Fr"}, "B14": {"name": "4NBX.B-biotin103 v186_Fr +1 (VHH)", "VHH": "B12 VHH with A12V, F37Y, C103A, A104C", "notes": "also called +1 variant of 4NBX.B-biotin103 v186_Fr"}, "B15": {"name": "2X89.A-CCAA-biotin57 v42 (VHH)", "VHH": "QVQLQESGGGLVQAGGSLRLSCAASGYTDSQYAMGWYRQAPGKEREWVATISAGRDCTYYADSVKGRFTFSQDNAKNTVYLQMDSLKPEDTAVYYCATDIPLQATLITAKGGKGFQYWGQGTQVTVSS"}, "B16": {"name": "2X89.A-CCAA-biotin57 v20 (VHH)", "VHH": "B15 VHH with D29S, I100S"}, "B17": {"name": "2X89.A-CCAA-biotin57 v37 (VHH)", "VHH": "B15 VHH with Q31R, T50R, K113D, Q116R"}, "B18": {"name": "2X89.A-CCAA-biotin57 v5 (VHH)", "VHH": "B15 VHH with D29S, R55A, I100S", "notes": "also called variant v5; final variant v5"}}, "key": {"[1]": {"molecular_target": "mSA (monomeric streptavidin, mSAWT) (Streptomyces avidinii; Rhizobium etli, UniProt P22629+Q8KKW2)", "test": "SPR binding against mSAWT", "settings": "for koff / dissociation rate, in words: mSAWT", "description": "Smt3 SUMO protein has an unstructured N-terminus and it was hypothesized this would minimize the interaction between the protein components."}, "[2]": {"settings": "for aggregation / monomer stability on SEC: SEC traces", "description": "Two additional rounds of CDR residue mutability analysis were performed followed by in-parallel combinatorial designs on v149 until no further CDR mutations were predicted to be energetically favorable. Mutations accumulated in previous rounds of design were kept intact in subsequent rounds."}, "[3]": {"molecular_target": "T1, N-terminal biotinylated Smt3 SUMO protein (UniProt Q12306 2-98 = SUMO)", "test": "SPR, Biotin_SUMO injected at 2.5, 10, 20, 50, 80 nM over immobilized mSAWT; fit curve; replicate 3"}, "[4]": {"molecular_target": "T1, N-terminal biotinylated Smt3 SUMO …", "test": "SPR, Biotin_SUMO injected at 2.5, 10, 20, 50, 80 nM over immobilized mSAWT; fit curve; replicate 2"}, "[5]": {"molecular_target": "T1, N-terminal biotinylated Smt3 SUMO …", "test": "SPR, Biotin_SUMO injected at 2.5, 10, 20, 50, 80 nM over immobilized mSAWT; fit curve; one of three replicates"}, "[6]": {"molecular_target": "B11", "test": "SPR, conjugate injected at 0.5, 1, 2.5, 5, 10 nM over immobilized mSAWT; fit curve"}, "[7]": {"molecular_target": "B11", "test": "SPR, single-cycle injections of 1, 2.5, 5, 10 and 20 nM conjugate over immobilized mSAWT; fit curve"}, "[8]": {"molecular_target": "B11", "test": "SPR, single-cycle injections of 1, 2.5, 5, 10 and 20 nM conjugate over immobilized mSAWT; fit curve"}, "[9]": {"molecular_target": "B11", "test": "SPR"}, "[10]": {"molecular_target": "B11", "test": "SPR, single-cycle injections of 2.5, 5, 10, 20 and 50 nM conjugate; target mSAWT by the text, not printed on the sheet; fit curve"}, "[11]": {"molecular_target": "B11", "test": "SPR, single-cycle injections of 2.5, 5, 10, 20 and 50 nM conjugate; target mSAWT by the text, not printed on the sheet; fit curve"}, "[12]": {"molecular_target": "B11", "test": "SPR, single-cycle injections of 2.5, 5, 10, 20 and 50 nM conjugate; target mSAWT by the text, not printed on the sheet; fit curve"}}, "note": "Substitutions are numbered along the chain they refer to. In names and notes the source's numbering stands. Entries after “also recorded” stand apart in the source; their conditions may differ."}
{"molecule": "B1", "values": [{"measurement": "binding signal to mSA", "setting": "[1]; concentrations up to 100 nM", "result": "did not show binding signal"}]}
{"molecule": "B2", "values": [{"measurement": "aggregation / monomer stability on SEC", "setting": "[2]", "result": "single peaks"}]}
{"molecule": "B3", "values": [{"measurement": "aggregation / monomer stability on SEC", "setting": "[2]", "result": "very prone to aggregation"}]}
{"molecule": "B4", "values": [{"measurement": "aggregation / monomer stability on SEC", "setting": "[2]", "result": "single peaks"}, {"measurement": "koff / dissociation rate, in words", "setting": "[1]", "result": "only minimally different"}]}
{"molecule": "B5", "values": [{"measurement": "aggregation / monomer stability on SEC", "setting": "[2]", "result": "aggregated obviously"}, {"measurement": "koff / dissociation rate, in words", "setting": "[1]", "result": "especially slow dissociation rate; also recorded: slightly better than the best designed 4NBX.B variant v186_Fr"}]}
{"molecule": "B6", "values": [{"measurement": "aggregation / monomer stability on SEC", "setting": "[2]", "result": "even worse aggregates formation than v149"}, {"measurement": "KD / measured affinity against mSAWT, comparison in words", "setting": "[1]", "result": "very similar KD as v149"}]}
{"molecule": "B7", "values": [{"measurement": "KD / measured affinity against mSAWT, comparison in words", "setting": "[1]", "result": "minimally different from the wildtype v186_Fr"}]}
{"molecule": "B8", "values": [{"measurement": "KD / measured affinity against mSAWT, comparison in words", "setting": "[1]", "result": "minimally different from the wildtype v186_Fr"}]}
{"molecule": "B9", "values": [{"measurement": "aggregation / monomer stability on SEC", "setting": "[2]", "result": "significantly reduced aggregation"}, {"measurement": "re-aggregation of collected fractions excluding the aggregates peak", "setting": "[2]; rerun on SEC", "result": "did not re-aggregate"}]}
{"molecule": "B10", "values": [{"measurement": "aggregation / monomer stability on SEC", "setting": "[2]", "result": "eventually better than the 2X89.A-CCAA-biotin57 parent conjugate"}, {"measurement": "koff / dissociation rate, in words", "setting": "[1]", "result": "relatively preserved"}]}
{"molecule": "B11", "values": [{"measurement": "Kd", "setting": "[3]", "result": 10.4, "unit": "nM"}, {"measurement": "koff", "setting": "[3]", "result": 0.00366, "unit": "s⁻¹"}, {"measurement": "kon", "setting": "[3]", "result": 350000, "unit": "M⁻¹ s⁻¹"}, {"measurement": "Kd", "setting": "[4]", "result": 10.5, "unit": "nM"}, {"measurement": "koff", "setting": "[4]", "result": 0.00372, "unit": "s⁻¹"}, {"measurement": "kon", "setting": "[4]", "result": 360000, "unit": "M⁻¹ s⁻¹"}, {"measurement": "Kd", "setting": "[5]", "result": 7.85, "unit": "nM"}, {"measurement": "koff", "setting": "[5]", "result": 0.00334, "unit": "s⁻¹"}, {"measurement": "kon", "setting": "[5]", "result": 430000, "unit": "M⁻¹ s⁻¹"}]}
{"molecule": "B12", "values": [{"measurement": "Kd", "setting": "[6]", "result": 0.33, "unit": "nM"}, {"measurement": "koff", "setting": "[6]", "result": 0.00106, "unit": "s⁻¹"}, {"measurement": "kon", "setting": "[6]", "result": "3.23e+06", "unit": "M⁻¹ s⁻¹"}]}
{"molecule": "B13", "values": [{"measurement": "Kd", "setting": "[7]", "result": 0.32, "unit": "nM"}, {"measurement": "koff", "setting": "[7]", "result": 0.000986, "unit": "s⁻¹"}, {"measurement": "kon", "setting": "[7]", "result": "3.13e+06", "unit": "M⁻¹ s⁻¹"}]}
{"molecule": "B14", "values": [{"measurement": "Kd", "setting": "[8]", "result": 0.64, "unit": "nM"}, {"measurement": "koff", "setting": "[8]", "result": 0.00138, "unit": "s⁻¹"}, {"measurement": "kon", "setting": "[8]", "result": "2.14e+06", "unit": "M⁻¹ s⁻¹"}, {"measurement": "fold weaker binding than the -1 variant", "setting": "[9]", "result": "~2", "unit": "fold"}]}
{"molecule": "B15", "values": [{"measurement": "Kd", "setting": "[10]", "result": 3.32, "unit": "nM"}, {"measurement": "koff", "setting": "[10]", "result": 0.00178, "unit": "s⁻¹"}, {"measurement": "kon", "setting": "[10]", "result": 540000, "unit": "M⁻¹ s⁻¹"}]}
{"molecule": "B16", "values": [{"measurement": "Kd", "setting": "[11]", "result": 3.28, "unit": "nM"}, {"measurement": "koff", "setting": "[11]", "result": 0.00183, "unit": "s⁻¹"}, {"measurement": "kon", "setting": "[11]", "result": 560000, "unit": "M⁻¹ s⁻¹"}]}
{"molecule": "B17", "values": [{"measurement": "binding result", "setting": "[9]", "result": "binds"}]}
{"molecule": "B18", "values": [{"measurement": "Kd", "setting": "[12]", "result": 2.78, "unit": "nM"}, {"measurement": "koff", "setting": "[12]", "result": 0.00122, "unit": "s⁻¹"}, {"measurement": "kon", "setting": "[12]", "result": 440000, "unit": "M⁻¹ s⁻¹"}]}
